Assay [1] deals with primary melanocytes. Briefly: Melanocyte cell viability after IFN-γ, chemokines, cell death inhibitors or 2A6Q, Day 2 and Day 7. The class given is cell-based, human. The settings on record: day 7 of treatment. As for the experimental part:
To determine cell viability of melanocyte after treatment with IFN-γ, CXCL9, CXCL10, CXCL11, at Day 2, and Day 7, the cells were collected and seeded into 96-well plates. After adhesion, cells were treated with IFN-γ (0, 10, 100 ng/ml) with different compounds: 2A6Q, CXCL9, CXCL10, CXCL11, ROS scavenger (NAC), necroptosis inhibitor (NEC-1), pyroptosis inhibitor (VX-765), apoptosis inhibitor (QVD-OPH), Ferroptosis inhibitor (Liproxstaitin-1, Ferrostatin-1, DFO). Cell viability was measured using a CellTiter-Glo luminescent cell viability assay kit (Promega) according to the manufacturer's protocol. The […] of the final reaction product was measured using a luminometer (SpectraMax® iD3 Multi-Mode Microplate Reader (Molecular Devices). After calculation, the viability of control cells was 100%, and all others were normalized to control and shown as relative cell viability (%). Treatment dosage N-acetylcysteine (NAC; 0.05 mM, 1 mM), Necrostatin-1 (NEC-1; 20 μM, 2 μM), Belnacasan (VX-765; 50 μg/mL, 5 μg/mL), Quinoline-Val Asp-Difluorophenoxymethylketone (QVD-OPH; 10 μM, 2 μM), Liproxstaitin-1 (10 μM, 5 μM, 1 μM, 0.05 μM), Ferrostatin-1 (5 μM, 1 μM), Deferoxamine (DFO; 10 μM, […], 1 μM, 0.05 μM), 2A6Q (10 μg/mL), CXCL9 (10 ng/mL, 10 pg/mL), CXCL10 (10 ng/ml, 10 pg/mL), CXCL11(10 ng/mL, 10 pg/mL).

In assay [2] the test system is melanocytes. Briefly: Intracellular ROS in melanocytes (CM-H2DCFDA). Format: cell-based, human. The conditions noted are these: 10 and 100 ng/mL IFN-γ, day 7. How it is done: Materials and methods: For intracellular ROS measurement, melanocytes were washed with PBS and incubated with 20 μM CM-H2DCFDA (Invitrogen) for 30 min at 37° C. in the dark. The cells were resuspended with PBS and examined with flow cytometry at an excitation wavelength of 488 nm and an emission wavelength of 530 nm; the data were analyzed with FlowJo.

The test system of assay [3] is MITF. In words: Melanin regulators in melanocytes (RNA sequencing, MITF immunoblot). Format: cell-based, human. The text has this:
(§1) Total RNA was extracted from melanocytes with an RNA purification kit (Zymo Research, r2050). After RNA samples were extracted from primary melanocytes and melanocytes cell line (Gibco), the samples were sent to Biotools Co., Ltd Taiwan for RNA sequence. The RNA quality was examined by Agilent Technologies 2100 Bio-analyzer with an RNA integrity value greater than 8. After rRNA depletion (Epicenter), RNA fragmentation, and library preparation (Illumina), the constructed libraries were then performed 150 bp paired-end sequencing by an Illumina NovaSeq6000 sequencer. The results from each sample were aligned to the GRCh38 genome by the HISAT2 software and analyzed by Biotools Co., Ltd Taiwan.
(§2) Cells were washed in PBS and lysed in RIPA lysis buffer with proteases inhibitor and Phenylmethanesulfonyl fluoride (PMSF; Sigma-Aldrich, P7626). The total cell lysates were sonicated and centrifuged at 4° C., 13000 rpm for 30 min. Protein concentration was quantified using the Bradford assay. The total cell lysates were separated by SDS-PAGE and transferred to a PVDF membrane. The membrane was blocked with 5% BSA or 5% milk in TBST for 1 hour at room temperature and incubated with primary antibodies overnight at 4° C. and HRP-conjugated secondary antibodies for hour at room temperature. The protein was visualized by Thermo ibright1500. Primary antibodies were follows: anti-human SLC7A11 (CST, 12691), anti-human SLC3A2 (CST, 13180), anti-IRF1 (CST, 8478), anti-MITF (CST, 12590), and anti-GAPDH (Abcam, ab8245).

Assay [4] relates to primary melanocytes. In words: Cell morphology assay in melanocytes. The class given is cell-based, human.
Assay [5] has as its system melanocytes. In words: Melanocyte apoptosis, Annexin V / 7AAD flow cytometry. The settings on record: IFN-γ 10 or 100 ng/ml, 48 hrs. The class given is cell-based, human. As for the experimental part: Materials and methods: Melanocyte cell apoptosis was detected with Annexin V (BD, 550474) and 7AAD (1 mg/mL, Sigma A9400-1 MG). The cells were detached and resuspended with […] binding buffer (BD, 556454) containing Annexin V and 7AAD for 15 min at room temperature in the dark. Before analysis, cells were added to a […] binding buffer and immediately analyzed a on a flow cytometer (Verse BD).
A general note: A flow cytometer gives signals particle by particle.

Assay [6] concerns human primary melanocytes (HEMn-DP). In words: IFN-γ inhibition of human primary melanocyte cell viability (CellTiter-Glo). The class given is cell-based. The settings on record: 72 hrs at 37° C. How it is done:
Materials and methods: To examine the dose-dependency of IFN-γ inhibition of human primary melanocytes (HEMn-DP) cell viability, HEMn-DP cells were seeded into a 96-well plate at a concentration of 10,000 cells/well in 100 μL assay medium (M254 supplemented with 1× HMGS, 10 ng/mL PMA plus Penicillin-Streptomycin) at 37° C. for 5 hours. After seeding, 100 μL of IFN-γ serial dilutions were added, followed by incubation at 37° C. for 72 hrs. Then, cell proliferation was measured using CellTiter-Glo kit (Promega) according to the manufacturer's instructions. Luminescence was measured with an iD3 multimode reader (Molecular Devices), and data analyzed using nonlinear regression curve fit using GraphPad Prism7.

For assay [7] the test system is unchanged. In words: IFN-γ inhibition of melanocyte melanogenesis (melanin content, absorbance 470 nm). Format: cell-based. How it is done: Materials and methods: To examine the dose-dependency of IFN-γ inhibition of HEMn-DP cell melanogenesis, HEMn-DP cells were seeded into a 24-well plate at a concentration of 200,000 cells/well in 1 mL assay medium (M254 supplemented with 1× HMGS, 10 ng/mL PMA plus Penicillin-Streptomycin) with serial dilutions of IFN-γ, followed by incubation at 37° C. for 7 days. The cell assay medium was replaced by fresh medium with serially titrated concentrations of IFN-γ on day 3 and day 5. On day 7, cells were first washed with PBS twice, lysed in 250 μL of 1N NaOH/10% DMSO solution, then incubated at 80° C. for 1 hr. After lysis, each lysate was transfer to 96 well plate, and absorbance of melanin was then measured at […]. The relative melanin quantity was normalized with cell viability of each sample which was measured by CellTiter-Glo kit, and data were analyzed using nonlinear regression curve fit using GraphPad Prism7. To determine the potency of EI-001, HEMn-DP cells were seeded as previously described, and IFN-γ pre-incubated with indicated amounts of EI-001 for 25 min in 1 mL of assay medium. After incubation, the mixture was added to each well (final IFN-γ concentration is 20 ng/ml). Melanin content of melanocytes was determined as previously described.

The test system of assay [8] is melanocytes. In words: Lipid peroxidation in melanocytes (BODIPY 581/591 C11). The conditions noted are these: dose-dependent, Day 6. Format: cell-based, human. As for the experimental part:
For lipid peroxidation examination, melanocyte cells were seeded in a 6-well plate and treated with IFN-γ the next day. Melanocytes were washed with PBS and incubated with Hanks balanced salt solution (HBSS, Gibco) containing 5 μM BODIPY 581/591 C11 (Invitrogen, D3861) and incubated for 15 minutes at 37° C. in a tissue culture incubator. The cells were resuspended with fresh HBSS and examined with flow cytometry; the data were analyzed with FlowJo.

Assay [9] concerns SLC7A11. In words: Ferroptosis regulators in melanocytes (RNA sequencing, SLC7A11 immunoblot). The class given is cell-based, human.
From the text: as §1, §2

“Also recorded” adds a separate entry of the source.

B1: CXCL9: IFN-γ downstream cytokine added to melanocytes (protein, UniProt Q07325 23-125, looked up)
C-X-C motif chemokine 9: TPVVRKGRCSCISTNQGTIHLQSLKDLKQFAPSPSCEKIEIIATLKNGVQTCLNPDSADVKELIKKWEKQVSQKKKQKNGKKHQKKKVLKVRKSQRSRQKKTT
Consider B1, for which the “effect on cell viability of melanocytes (individual cytokine)” value (from here on “effect on cell viability of melanocytes”) in assay [1] is recorded as “not CXCL9, CXCL10, or CXCL11 significantly decreases”.

B2: IFN-γ: recombinant human interferon gamma, cytokine added to melanocytes (protein, UniProt P01579 24-161, looked up)
Interferon gamma: QDPYVKEAENLKKYFNAGHSDVADNGTLFLGILKNWKEESDRKIMQSQIVSFYFKLFKNFKDDQSIQKSVETIKEDMNVKFFNSNKKKRDDFEKLTNYSVTDLNVQRKAIHELIQVMAELSPAAKTGKRKRSQMLFRG
Consider B2, for which the “intracellular ROS in melanocytes” value in [2] is given as “significantly elevated”. In addition, the “expression of MITF (immunoblot)” value in [3] (melanocytes, 24 hrs of treatment) was “dose-dependently downregulates”. The “expression of melanin regulators (MITF, MLANA, TYRP1, DCTT, TYR, TRPM1)” value in [3] (primary melanocyte, IFN-γ 100 ng/ml 24 hrs vs control, transcriptome) is given as “induced downregulation of melanin regulators”. Besides, the “lowest concentration at which the morphology effect is present” value in assay [4] (dose-dependent effect) came out at 1 ng/ml. Further, the “morphology change in melanocyte (loss of dendrite, ballooning of cytoplasm)” value in assay [4] (primary melanocytes, 7 days of treatment) is given as “contributes to morphology change”. For the same molecule, in assay [5], the “early phase apoptosis in melanocytes (Annexin V)” value is “induced early phase apoptosis; also recorded: significantly upregulate Annexin V but not 7AAD”. Further, the “IC50 of IFN-γ causing 50% inhibition of melanocyte viability” value in assay [6] stood at 8.114 ng/mL. Besides, the “IC50 of IFN-γ causing 50% inhibition of melanocyte melanogenesis” value in assay [7] (human primary melanocytes, 7 days, melanin content) is 0.392 ng/mL. In assay [7] (spectrophotometer), the “melanin content of melanocytes under IFN-γ” value is “decrease in melanin content in a dose-dependent manner”. For the same molecule, the “lipid peroxidation level in melanocytes” value in assay [8] is given as “increased”. Moreover, the “effect on cell viability of melanocytes” value in [1] was “significantly decreases”. Also, the “expression of ferroptosis markers SLC7A11, SLC3A2, Ferritin, GPX4 and TFR1 (RNA sequencing)” value in assay [9] (24 hrs IFN-γ) is given as “downregulation”. The “expression of SLC7A11 (immunoblot)” value in assay [9] (48 hours incubation with IFN-γ) is “dose-dependently downregulated”.

B3: CXCL11: IFN-γ downstream cytokine added to melanocytes (protein, UniProt O14625 22-94, looked up)
C-X-C motif chemokine 11: FPMFKRGRCLCIGPGVKAVKVADIEKASIMYPSNNCDKIEVIITLKENKGQRCLNPKSKQARLIIKKVERKNF
Regarding B3, the “effect on cell viability of melanocytes” value in assay [1] is recorded as “not CXCL9, CXCL10, or CXCL11 significantly decreases”.

Values taken from patent publication US20250320288A1, “METHOD OF TREATING VITILIGO WITH INTERFERON-GAMMA ANTIBODY” (Elixiron Immunotherapeutics (Hong Kong), priority 2022, published 2025).
